Measurements published in patent US20250144228A1, “NANOBODY-DRUG ADDUCTS AND USES THEREOF” (priority 2022, published 2025).

B1: VHHkappa: commercially available anti-mouse kappa chain VHH (nanobody clone TP1170), SEQ ID NO: 1 (protein)
VHH: QVQLVESGGGWVQPGGSLRLSCAASGFTFSDTAMMWVRQAPGKGREWVAAIDTGGGYTYYADSVKGRFTISRDNAKNTLYLQMNSLKPEDTARYYCAKTYSGNYYSNYTVANYGTTGRGTLVTVSSGG
B2: Anti-p83 B4: VHH specific for P. falciparum MSP-1 p83, SEQ ID NO: 12 (protein)
VHH: QLQLVESGGGLAQAGGSLRLSCAASGRTSSTKPMGWFRQAPGLEREFVASISWLGGSTLYSDSVKGRFTISRDNAKNTVYLQMNSLKSEDTAVYYCAGGTSAYSGRDSSRYEYWGQGTQVTVSSLPETGGHHHHHH

Legend:
mouse IgG2b = mouse IgG2b (Mus musculus, UniProt P01837); format: binding; settings: mouse IgG2b-coated ELISA plates
[1] = test system: P. falciparum merozoite surface protein 1 (MSP-1) subunits p83, p38, p42; experiment: ELISA of biotinylated VHHs on plate-bound MSP-1 subunits; format: binding, Plasmodium falciparum; settings: streptavidin-HRP and TMB
Experimental: (§1) FIGS. 13A-13D: VHH nanobodies bind specifically to Plasmodium falciparum: merozoite surface protein 1 (MSP-1). FIG. 13A: Schematic of the PfMSP-1 pro-peptide and the four inclusive subunits: p83, p30, p38, and p42. FIG. 13B: Purified […] B4, anti-p38 B8, anti-p42 A6, and anti-p42 G11 VHHs were biotinylated and these VHHs were incubated with plate bound subunits proteins as indicated. Binding ELISA was detected by using streptavidin-HRP and tetramethylbenzidine (TMB). Data are represented as optical density (OD). Error bars show SEM. FIG. 13C: Western blot of VHHs against the three PfMSP-1 subunits, the full length p190 pro-peptide, and some 3D7 lysates from −38-44 hour 3D7 schizonts. FIG. 13D: Flow cytometry on synchronized ˜38-44 hour 3D7 schizonts using fluorescently (Cy5) labeled VHHs.
(§2) Purified VHH nanobodies were biotinylated and tested for specificity toward isolated MSP-1 subunits. Anti-p83 B4, anti-p38 B8, anti-p42 A6, and anti-p42 G11 VHHs were each incubated with plate-bound p83, p38, p42, and p42, and binding to the plates was detected by an enzyme-linked immunoassay (ELISA) using streptavidin-horseradish peroxidase (HRP) and tetramethylbenzidine (TMB). […] Finally, purified VHHs were tested against live ˜38-44 hour 3D7 schizonts in a flow cytometry assay.

[2] = target: T1, PfMSP-1 subunits, full length p190 pro-peptide (Plasmodium falciparum, UniProt Q8I0U8); format: binding
T1 construct: the three PfMSP-1 subunits, the full length p190 pro-peptide
Experimental: as §1, with “FIG.” for “FIGS. 13A-13D: VHH nanobodies bind specifically to Plasmodium falciparum: merozoite surface protein 1 (MSP-1). FIG.”
as §2

[3] = test system: PfMSP-1 subunits, full length p190 pro-peptide; format: binding, Plasmodium falciparum
Experimental: as §1, with “FIG.” for “FIGS. 13A-13D: VHH nanobodies bind specifically to Plasmodium falciparum: merozoite surface protein 1 (MSP-1). FIG.”
as §2

T1 sequence (Q8I0U8 20-1699): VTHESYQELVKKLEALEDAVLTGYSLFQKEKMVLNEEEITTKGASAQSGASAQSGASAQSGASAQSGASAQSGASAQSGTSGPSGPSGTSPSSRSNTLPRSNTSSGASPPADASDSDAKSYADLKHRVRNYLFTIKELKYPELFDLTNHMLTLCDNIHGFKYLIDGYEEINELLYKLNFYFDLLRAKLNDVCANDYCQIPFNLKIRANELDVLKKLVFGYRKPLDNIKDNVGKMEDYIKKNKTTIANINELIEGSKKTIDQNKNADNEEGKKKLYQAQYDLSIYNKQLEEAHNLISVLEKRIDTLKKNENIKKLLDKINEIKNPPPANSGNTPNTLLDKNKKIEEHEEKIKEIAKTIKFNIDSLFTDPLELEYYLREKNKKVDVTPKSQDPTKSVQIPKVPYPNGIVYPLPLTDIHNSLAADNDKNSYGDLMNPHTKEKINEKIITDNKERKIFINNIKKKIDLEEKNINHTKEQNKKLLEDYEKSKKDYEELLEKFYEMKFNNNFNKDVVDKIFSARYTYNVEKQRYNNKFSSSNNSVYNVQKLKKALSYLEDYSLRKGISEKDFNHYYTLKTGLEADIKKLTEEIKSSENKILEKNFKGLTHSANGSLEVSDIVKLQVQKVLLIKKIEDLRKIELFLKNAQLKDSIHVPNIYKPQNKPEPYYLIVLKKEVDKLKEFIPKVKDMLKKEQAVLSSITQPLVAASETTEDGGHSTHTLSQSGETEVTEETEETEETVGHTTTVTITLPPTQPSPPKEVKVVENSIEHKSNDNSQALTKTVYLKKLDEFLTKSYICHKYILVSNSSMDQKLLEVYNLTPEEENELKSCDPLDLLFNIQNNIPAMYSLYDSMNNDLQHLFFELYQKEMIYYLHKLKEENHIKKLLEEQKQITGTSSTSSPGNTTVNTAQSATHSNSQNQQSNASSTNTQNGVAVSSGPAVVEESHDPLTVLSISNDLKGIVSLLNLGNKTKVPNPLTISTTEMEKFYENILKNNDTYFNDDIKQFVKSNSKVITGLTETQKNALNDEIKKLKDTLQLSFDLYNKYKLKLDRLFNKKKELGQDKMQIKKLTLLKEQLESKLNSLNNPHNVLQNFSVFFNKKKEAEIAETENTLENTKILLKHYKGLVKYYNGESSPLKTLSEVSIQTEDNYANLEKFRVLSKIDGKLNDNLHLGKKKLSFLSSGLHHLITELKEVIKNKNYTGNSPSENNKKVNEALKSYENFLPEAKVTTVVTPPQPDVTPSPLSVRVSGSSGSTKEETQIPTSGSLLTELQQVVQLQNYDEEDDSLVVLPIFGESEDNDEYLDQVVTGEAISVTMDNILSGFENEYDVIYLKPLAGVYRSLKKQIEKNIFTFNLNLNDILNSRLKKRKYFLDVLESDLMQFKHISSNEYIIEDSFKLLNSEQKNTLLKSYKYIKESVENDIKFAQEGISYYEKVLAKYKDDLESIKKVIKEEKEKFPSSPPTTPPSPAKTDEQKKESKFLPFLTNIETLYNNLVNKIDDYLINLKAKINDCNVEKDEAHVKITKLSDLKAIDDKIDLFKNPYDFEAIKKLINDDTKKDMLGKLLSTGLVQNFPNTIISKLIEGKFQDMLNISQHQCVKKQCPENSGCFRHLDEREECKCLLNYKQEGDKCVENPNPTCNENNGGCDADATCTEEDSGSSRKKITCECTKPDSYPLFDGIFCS

Row | Molecule | binding to mouse IgG2b (in words) (mouse IgG2b) | binding to plate-bound MSP-1 subunits (ELISA) [1] | binding to lysate from ˜38-44 hour 3D7 schizonts [2] | binding to MSP-1 subunits and pro-peptide p190 (gel electrophoresis / Western blot) [3]
1 | B1 | nanomolar affinity | – | – | –
2 | B2 | – | bind specifically to one subunit | observed to bind | bind to one subunit of MSP-1 and to the MSP-1 pro-peptide (p190), but not to any other subunit
